{"source": "the supplement of paper PMC9112550", "about": "“Optimization of the antimicrobial peptide Bac7 by deep mutational scanning” (BMC Biology, 2022);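 also: peptides expressed intracellularly from a pBAD plasmid library in pooled LB shake-flask culture, induced with 0.3% L-arabinose, DNA abundance read by NGS, three biological replicates, DESeq2 with apeglm shrinkage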", "data": [{"system": "Escherichia coli TOP10", "test": "shrunken log2 fold change of peptide-encoding DNA abundance (4.5 h post-induction vs induction); higher = less antimicrobial activity (less host growth inhibition)", "details": "time post-induction: 4.5 h; library: site-saturation at positions 5, 18, 19, 20", "values": [{"sequence": "RRIRKRPPRLPRPRPRPSASPRP", "shrunken log2 fold change": 0.288}, {"sequence": "RRIRPRPPRLPRPRPRPACQPRP", "shrunken log2 fold change": 0.22}, {"sequence": "RRIRERPPRLPRPRPRPWVNPRP", "shrunken log2 fold change": -0.00303}, {"sequence": "RRIRIRPPRLPRPRPRPWVLPRP", "shrunken log2 fold change": -0.142}, {"sequence": "RRIRWRPPRLPRPRPRPDIVPRP", "shrunken log2 fold change": 0.469}, {"sequence": "RRIRCRPPRLPRPRPRPLGGPRP", "shrunken log2 fold change": 0.281}, {"sequence": "RRIRVRPPRLPRPRPRPYYYPRP", "shrunken log2 fold change": -0.796}, {"sequence": "RRIRDRPPRLPRPRPRPNEMPRP", "shrunken log2 fold change": 0.00902}, {"sequence": "RRIRYRPPRLPRPRPRPWMNPRP", "shrunken log2 fold change": -0.00197}, {"sequence": "RRIRDRPPRLPRPRPRPLCCPRP", "shrunken log2 fold change": 0.0616}, {"sequence": "RRIRSRPPRLPRPRPRPAVPPRP", "shrunken log2 fold change": 0.168}, {"sequence": "RRIRLRPPRLPRPRPRPTTMPRP", "shrunken log2 fold change": -0.439}, {"sequence": "RRIRTRPPRLPRPRPRPNSMPRP", "shrunken log2 fold change": -0.496}, {"sequence": "RRIRARPPRLPRPRPRPYLYPRP", "shrunken log2 fold change": -0.312}, {"sequence": "RRIRFRPPRLPRPRPRPARQPRP", "shrunken log2 fold change": 0.379}, {"sequence": "RRIRMRPPRLPRPRPRPVTVPRP", "shrunken log2 fold change": 0.0436}, {"sequence": "RRIRCRPPRLPRPRPRPHDLPRP", "shrunken log2 fold change": -0.46}, {"sequence": "RRIRWRPPRLPRPRPRPYWWPRP", "shrunken log2 fold change": -0.0939}, {"sequence": "RRIRNRPPRLPRPRPRPYPWPRP", "shrunken log2 fold change": -0.0963}, {"sequence": "RRIRLRPPRLPRPRPRPKMYPRP", "shrunken log2 fold change": -0.14}, {"sequence": "RRIRTRPPRLPRPRPRPGWEPRP", "shrunken log2 fold change": 0.0505}, {"sequence": "RRIRVRPPRLPRPRPRPIYYPRP", "shrunken log2 fold change": -0.455}, {"sequence": "RRIRERPPRLPRPRPRPYPTPRP", "shrunken log2 fold change": -0.397}, {"sequence": "RRIRDRPPRLPRPRPRPQCCPRP", "shrunken log2 fold change": 0.0263}, {"sequence": "RRIRERPPRLPRPRPRPRQKPRP", "shrunken log2 fold change": 0.0386}, {"sequence": "RRIRFRPPRLPRPRPRPLPTPRP", "shrunken log2 fold change": 0.336}, {"sequence": "RRIRIRPPRLPRPRPRPINHPRP", "shrunken log2 fold change": -0.683}, {"sequence": "RRIRERPPRLPRPRPRPCQLPRP", "shrunken log2 fold change": -0.265}, {"sequence": "RRIRNRPPRLPRPRPRPCKQPRP", "shrunken log2 fold change": -0.0218}, {"sequence": "RRIRGRPPRLPRPRPRPKHEPRP", "shrunken log2 fold change": 0.679}, {"sequence": "RRIRTRPPRLPRPRPRPDDTPRP", "shrunken log2 fold change": -0.12}, {"sequence": "RRIRTRPPRLPRPRPRPDKGPRP", "shrunken log2 fold change": 0.0109}, {"sequence": "RRIRARPPRLPRPRPRPFSFPRP", "shrunken log2 fold change": -0.235}, {"sequence": "RRIRFRPPRLPRPRPRPCQGPRP", "shrunken log2 fold change": -0.198}, {"sequence": "RRIRSRPPRLPRPRPRPDGKPRP", "shrunken log2 fold change": 0.00369}, {"sequence": "RRIRGRPPRLPRPRPRPIVDPRP", "shrunken log2 fold change": 0.0357}, {"sequence": "RRIRGRPPRLPRPRPRPECIPRP", "shrunken log2 fold change": 1.67}, {"sequence": "RRIRWRPPRLPRPRPRPCTVPRP", "shrunken log2 fold change": -0.438}, {"sequence": "RRIRQRPPRLPRPRPRPDYYPRP", "shrunken log2 fold change": -0.0251}, {"sequence": "RRIRQRPPRLPRPRPRPVFEPRP", "shrunken log2 fold change": 0.0624}, {"sequence": "RRIRIRPPRLPRPRPRPWAFPRP", "shrunken log2 fold change": -0.0187}, {"sequence": "RRIRDRPPRLPRPRPRPWTYPRP", "shrunken log2 fold change": -0.834}, {"sequence": "RRIRDRPPRLPRPRPRPVASPRP", "shrunken log2 fold change": 0.0264}, {"sequence": "RRIRVRPPRLPRPRPRPWFRPRP", "shrunken log2 fold change": -0.304}, {"sequence": "RRIRTRPPRLPRPRPRPHWLPRP", "shrunken log2 fold change": 0.122}, {"sequence": "RRIRSRPPRLPRPRPRPWRNPRP", "shrunken log2 fold change": -0.0428}, {"sequence": "RRIRERPPRLPRPRPRPLIDPRP", "shrunken log2 fold change": -0.352}, {"sequence": "RRIRCRPPRLPRPRPRPDPAPRP", "shrunken log2 fold change": 0.412}, {"sequence": "RRIRWRPPRLPRPRPRPSSNPRP", "shrunken log2 fold change": -0.0759}, {"sequence": "RRIRIRPPRLPRPRPRPKNTPRP", "shrunken log2 fold change": -0.695}, {"sequence": "RRIRSRPPRLPRPRPRPCDPPRP", "shrunken log2 fold change": 0.0442}, {"sequence": "RRIRPRPPRLPRPRPRPVDFPRP", "shrunken log2 fold change": 0.0795}, {"sequence": "RRIRNRPPRLPRPRPRPDSYPRP", "shrunken log2 fold change": -0.054}, {"sequence": "RRIRCRPPRLPRPRPRPEPRPRP", "shrunken log2 fold change": 0.61}, {"sequence": "RRIRNRPPRLPRPRPRPMCFPRP", "shrunken log2 fold change": -0.114}, {"sequence": "RRIRPRPPRLPRPRPRPCASPRP", "shrunken log2 fold change": -0.0883}, {"sequence": "RRIRQRPPRLPRPRPRPYDCPRP", "shrunken log2 fold change": -0.195}, {"sequence": "RRIRQRPPRLPRPRPRPVCFPRP", "shrunken log2 fold change": -0.139}, {"sequence": "RRIRFRPPRLPRPRPRPSEAPRP", "shrunken log2 fold change": -0.0845}, {"sequence": "RRIRTRPPRLPRPRPRPKTGPRP", "shrunken log2 fold change": -0.104}]}]}
